Measured values reported in patent publication US20180110875A1 (SUZHOU SUNCADIA BIOPHARMACEUTICALS, published 2018).
Positions count from the first letter of the chain named.

B1: Ab-10 humanized antibody (antibody, human IgG2, kappa)
heavy: QVQLVESGGGVVQPGRSLRLSCAASGFSLSNYGVHWVRQAPGKGLEWLAVIWSGGSTNYAAAFVSRLTISKDNSKNTVYLQMNSLRAEDTAVYYCARNHDNPYNYAMDYWGQGTTVTVSSASTKGPSVFPLAPCSRSTSESTAALGCLVKDYFPEPVTVSWNSGALTSGVHTFPAVLQSSGLYSLSSVVTVPSSNFGTQTYTCNVDHKPSNTKVDKTVERKCCVECPPCPAPPVAGPSVFLFPPKPKDTLMISRTPEVTCVVVDVSHEDPEVQFNWYVDGVEVHNAKTKPREEQFNSTFRVVSVLTVVHQDWLNGKEYKCKVSNKGLPAPIEKTISKTKGQPREPQVYTLPPSREEMTKNQVSLTCLVKGFYPSDIAVEWESNGQPENNYKTTPPMLDSDGSFFLYSKLTVDKSRWQQGNVFSCSVMHEALHNHYTQKSLSLSPGK
light: DIVLTQSPDSLAVSLGERATINCRADKSVSTSTYNYLHWYQQKPGQPPKLLIYLASNLASGVPDRFSGSGSGTDFTLTISSLQAEDVAVYYCQHSRDLPPTFGQGTKLEIKRTVAAPSVFIFPPSDEQLKSGTASVVCLLNNFYPREAKVQWKVDNALQSGNSQESVTEQDSKDSTYSLSSTLTLSKADYEKHKVYACEVTHQGLSSPVTKSFNRGEC
notes: human constant regions, kappa light chain
B2: Ab-11 humanized antibody (antibody, human IgG2, kappa, V domains shown)
VH: QVQLVESGGGVVQPGRSLRLSCAASGFTLPNYGVHWVRQAPGKGLEWLAVIWSGGSTNYAAAFVSRLTISKDNSKNTVYLQMNSLRAEDTAVYYCARNHDNPYNYAMDYWGQGTTVTVSS
VL: DIVLTQSPDSLAVSLGERATINCRANKSVSTSTYNYLHWYQQKPGQPPKLLIYLASNLASGVPDRFSGSGSGTDFTLTISSLQAEDVAVYYCQHSRDLPPTFGQGTKLEIKR
notes: as for B1
B3: Anti-c-Met antibody Ab-10-toxin MC-MMAF conjugate (antibody, human IgG2, kappa, V domains shown)
VH: B2 VH with T28S, P30S
VL: B2 VL with N26D
modifications: MC-MMAF coupled through a propyl mercaptan linker put on the antibody; average y=1.7 per antibody; chain and residues not stated
B4: Anti-c-Met antibody Ab-10-toxin conjugate (Example 24) (antibody, V domains shown)
VH: B2 VH with T28S, P30S
VL: B2 VL with N26D
modifications: toxin intermediate 12h (maleimidocaproyl derivative of toxin 12g) coupled through a propyl mercaptan linker put on the antibody; average y=1.6 per antibody; chain and residues not stated
B5: Ab-9 humanized antibody (antibody, human IgG2, kappa)
heavy: QVTLKESGPVLVKPTETLTLTCTVSGFSLPNYGVHWVRQPPGKALEWLAVIWSGGSTNYAAAFVSRLRISKDTSKSQVVFTMNNMDPVDTATYYCARNHDNPYNYAMDYWGQGTTVTVSSASTKGPSVFPLAPCSRSTSESTAALGCLVKDYFPEPVTVSWNSGALTSGVHTFPAVLQSSGLYSLSSVVTVPSSNFGTQTYTCNVDHKPSNTKVDKTVERKCCVECPPCPAPPVAGPSVFLFPPKPKDTLMISRTPEVTCVVVDVSHEDPEVQFNWYVDGVEVHNAKTKPREEQFNSTFRVVSVLTVVHQDWLNGKEYKCKVSNKGLPAPIEKTISKTKGQPREPQVYTLPPSREEMTKNQVSLTCLVKGFYPSDIAVEWESNGQPENNYKTTPPMLDSDGSFFLYSKLTVDKSRWQQGNVFSCSVMHEALHNHYTQKSLSLSPGK
light: DIVLTQSPASLAVSPGQRATITCRANKSVSTSTYNYLHWYQQKPGQPPKLLIYLASNLASGVPARFSGSGSGTDFTLTINPVEANDTANYYCQHSRDLPPTFGQGTKLEIKRTVAAPSVFIFPPSDEQLKSGTASVVCLLNNFYPREAKVQWKVDNALQSGNSQESVTEQDSKDSTYSLSSTLTLSKADYEKHKVYACEVTHQGLSSPVTKSFNRGEC
notes: as for B1

Tests used:
[1] = biological target: T1, human c-Met expressed on cells (human, UniProt P08581 25-1390); assay: cell-based or functional assay
T1 sequence (P08581 25-1390): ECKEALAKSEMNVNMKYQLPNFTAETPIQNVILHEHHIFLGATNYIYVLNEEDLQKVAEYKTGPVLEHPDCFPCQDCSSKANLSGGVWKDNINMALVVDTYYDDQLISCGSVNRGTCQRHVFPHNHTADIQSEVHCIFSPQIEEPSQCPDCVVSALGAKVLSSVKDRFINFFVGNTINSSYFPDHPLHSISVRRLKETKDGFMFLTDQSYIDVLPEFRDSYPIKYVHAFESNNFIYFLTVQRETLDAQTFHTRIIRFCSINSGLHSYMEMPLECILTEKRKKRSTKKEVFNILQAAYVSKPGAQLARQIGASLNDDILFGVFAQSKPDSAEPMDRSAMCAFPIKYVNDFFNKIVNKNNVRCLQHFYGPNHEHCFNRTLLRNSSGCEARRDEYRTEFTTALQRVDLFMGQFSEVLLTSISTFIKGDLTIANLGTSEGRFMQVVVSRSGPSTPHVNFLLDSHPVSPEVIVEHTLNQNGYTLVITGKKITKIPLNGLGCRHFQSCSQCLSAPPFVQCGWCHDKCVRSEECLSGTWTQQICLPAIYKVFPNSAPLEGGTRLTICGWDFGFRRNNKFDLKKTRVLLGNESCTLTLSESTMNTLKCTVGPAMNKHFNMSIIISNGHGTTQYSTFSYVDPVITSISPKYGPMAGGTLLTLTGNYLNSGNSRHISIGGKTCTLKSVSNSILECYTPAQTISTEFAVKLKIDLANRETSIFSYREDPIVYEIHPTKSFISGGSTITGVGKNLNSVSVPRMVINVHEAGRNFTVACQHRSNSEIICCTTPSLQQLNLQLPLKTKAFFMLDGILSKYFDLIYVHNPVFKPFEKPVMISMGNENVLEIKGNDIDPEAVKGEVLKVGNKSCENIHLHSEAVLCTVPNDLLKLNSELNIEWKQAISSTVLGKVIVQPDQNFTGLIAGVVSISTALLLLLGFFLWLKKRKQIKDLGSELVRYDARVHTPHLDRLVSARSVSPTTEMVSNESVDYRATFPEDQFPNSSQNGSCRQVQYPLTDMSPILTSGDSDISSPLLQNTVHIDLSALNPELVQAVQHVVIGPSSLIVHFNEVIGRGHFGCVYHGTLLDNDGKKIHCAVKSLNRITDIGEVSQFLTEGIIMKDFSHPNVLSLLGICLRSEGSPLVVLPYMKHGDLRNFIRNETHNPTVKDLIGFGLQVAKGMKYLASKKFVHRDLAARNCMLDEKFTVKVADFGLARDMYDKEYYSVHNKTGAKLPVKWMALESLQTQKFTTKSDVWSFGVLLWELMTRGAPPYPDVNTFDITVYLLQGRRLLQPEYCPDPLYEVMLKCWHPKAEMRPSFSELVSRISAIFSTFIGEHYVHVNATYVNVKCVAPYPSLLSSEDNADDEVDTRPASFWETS

[2] = biological target: T1, human c-Met expressed on cells; assay: cell-based or functional assay; remark: listed apart in the source
[3] = biological target: T2, Human c-Met ECD His Tag (Human c-Met ECD-his) recombinant protein (human, UniProt P08581 25-932); assay: ELISA, human c-Met-His coated at 2 ug/ml
T2 construct: extracellular domain; Expressed in 293F cells; also called human c-Met-His; not shown: C-terminal His tag
T2 sequence (P08581 25-932): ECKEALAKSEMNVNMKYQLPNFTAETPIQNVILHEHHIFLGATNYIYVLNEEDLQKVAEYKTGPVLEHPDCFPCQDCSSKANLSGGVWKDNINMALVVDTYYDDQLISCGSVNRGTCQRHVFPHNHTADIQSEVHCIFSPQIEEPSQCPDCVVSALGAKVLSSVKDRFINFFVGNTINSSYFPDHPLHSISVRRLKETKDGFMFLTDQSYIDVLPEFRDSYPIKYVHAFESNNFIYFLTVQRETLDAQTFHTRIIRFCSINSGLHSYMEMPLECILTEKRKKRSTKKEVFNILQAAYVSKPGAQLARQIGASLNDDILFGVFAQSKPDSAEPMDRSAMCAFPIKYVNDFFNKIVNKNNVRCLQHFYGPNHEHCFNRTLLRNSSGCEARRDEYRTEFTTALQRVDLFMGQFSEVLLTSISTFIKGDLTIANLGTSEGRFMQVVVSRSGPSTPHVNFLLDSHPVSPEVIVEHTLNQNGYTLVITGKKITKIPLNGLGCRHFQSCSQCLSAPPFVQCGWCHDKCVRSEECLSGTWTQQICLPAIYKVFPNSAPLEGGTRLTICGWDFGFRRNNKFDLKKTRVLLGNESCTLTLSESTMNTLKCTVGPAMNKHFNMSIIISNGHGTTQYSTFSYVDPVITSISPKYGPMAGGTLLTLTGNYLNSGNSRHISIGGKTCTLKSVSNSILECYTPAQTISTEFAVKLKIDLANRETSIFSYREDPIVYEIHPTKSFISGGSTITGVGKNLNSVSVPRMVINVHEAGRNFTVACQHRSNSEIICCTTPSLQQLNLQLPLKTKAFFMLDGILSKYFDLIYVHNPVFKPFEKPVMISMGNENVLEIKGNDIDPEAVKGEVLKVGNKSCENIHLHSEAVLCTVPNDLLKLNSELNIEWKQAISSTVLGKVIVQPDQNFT

[4] = biological target: T3, Human c-Met extracellular region (ECD) and murine Fc region fusion protein (Human c-Met ECD-mFc) (human, UniProt P08581 25-932); assay: blocking ELISA of HGF/c-Met binding: c-Met ECD-mFc coated, antibody titrated, human HGF 20 ng/ml
T3 construct: extracellular domain; Expressed in 293F cells; not shown: murine Fc region
T3 sequence (P08581 25-932): as above
Protocol: c-Met ECD-mFc (Example 1) was diluted in PBS (Hyclone, Cat #SH30256.01B) with a final concentration of 2 μg/ml, and then a 96-well ELISA plate (Costar, cat#2592) was coated with c-Met ECD-mFc at room temperature overnight. The plate was washed with PBST (PBS+0.05% tween 20, Simga, Cat#P1379) 3 times on a plate washer (Suppler: BioTex; Model: ELX405; S/N: 251504). 300 μl blocking solution PBS+1% BSA (Roche, Cat #738328) was added to the 96-well plate, and the plate was incubated for 60 minutes at 37° C. After the plate was washed with PBST 3 times, 50 μl of antibody diluted by blocking solution was added to the 96-well plate, and the plate was incubated for 90 minutes at 37° C. […] After the plate was washed with PBST 3 times, 100 μl of horseradish peroxidase (ebioscience, #18-4100-51) diluted with blocking solution was added to the 96-well plate and incubated for 30 minutes. After the plate was washed with PBST 3 times, 100 μl substrate (ebioscience, cat#00-4201-56) was added to the plate and incubated for 10 minutes at room temperature. 100 μl stop solution (2N H₂SO₄) was added, and data was read by a […] microplate reader (Supplier: Moleculer Devices; Model: MNR0643; Equip ID: TMRP001). Data analysis was performed by SoftMax Pro v5.

[5] = biological target: T4, Human c-Met extracellular Sema region and Flag-His tag (Human c-Met Sema-Flis) (human, UniProt P08581 25-515, limits assumed); assay: SPR (Biacore), antibody captured by anti-human IgG, Sema-His 200-0.78 nM as analyte, 1:1 Langmuir
T4 construct: domain: extracellular Sema region; Expressed in 293F cells; also called Sema-His; c-Met antigen Sema-His; not shown: C-terminal Flag-His tag
T4 sequence (P08581 25-515 limits assumed): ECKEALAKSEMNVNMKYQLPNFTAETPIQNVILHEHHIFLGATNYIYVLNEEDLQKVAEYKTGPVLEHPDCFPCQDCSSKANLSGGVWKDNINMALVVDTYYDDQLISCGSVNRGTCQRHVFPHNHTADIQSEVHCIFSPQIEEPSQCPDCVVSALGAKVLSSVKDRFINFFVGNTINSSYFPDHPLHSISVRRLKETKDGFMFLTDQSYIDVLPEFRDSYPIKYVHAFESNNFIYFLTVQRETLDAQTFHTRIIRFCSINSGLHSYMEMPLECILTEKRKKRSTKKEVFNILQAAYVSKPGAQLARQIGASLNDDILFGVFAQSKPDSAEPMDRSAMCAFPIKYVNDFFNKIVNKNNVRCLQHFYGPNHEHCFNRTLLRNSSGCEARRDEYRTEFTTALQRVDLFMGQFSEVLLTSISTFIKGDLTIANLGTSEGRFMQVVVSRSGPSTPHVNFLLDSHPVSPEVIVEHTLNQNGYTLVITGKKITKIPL
Protocol: Anti-mouse IgG (GE Life Sciences catalog # BR-1008-38) or anti-human IgG (GE Life Sciences catalog # BR-1008-39) antibodies were respectively diluted to 30 μg/ml and 50 μg/ml by sodium acetate solution, pH 5.0 (GE Healthcare, Cat#BR-1003-51). An amino coupling kit (GE Life Sciences, Cat#BR100050) was immobilized onto the test channels and control channels on a CMS chip (GE Life Sciences catalog # BR-1000-12), and the coupling level was set at 15000RU. Running buffer PBS (Hyclone, Cat#SH30256.01B)+0.05% P20 (GE Life Sciences, Cat#BR-1000-54) was used to dilute the c-Met antibody to 1.5 μg/ml. Antigen Sema-His was diluted to 200 nM with running buffer, and then diluted at a 1:2 dilution with the same buffer until it reached 0.78 nM. The diluted antibody passed through the test channel for 1 minute at a speed of 30 μl/min, and the antigen passed through the test channels and control channels for 3 minutes at the same speed. After 10 minutes of dissociation, the flow speed was adjusted to 10 μl/min, and regeneration buffer was passed through test channels and control channels for 3 minutes. Data was fitted by BiaEvaluation 4.1 after double deduction, and the fitting model was a 1:1 Langmuir model.

[6] = biological target: T1, human c-Met expressed on cells; assay: cell-based or functional assay; remark: listed apart in the source

| Binder | Activity of inhibition of MKN45 cell proliferation, IC50 [1] [nM] | Inhibition of proliferation of BxPC3 cells (CCK), IC50 [2] [nM] | Inhibition of proliferation of Caki-1 cells (CCK), IC50 [2] [nM] | Inhibition of proliferation of MKN45 cells (CCK), IC50 [2] [nM] | Inhibition of proliferation of NCI-H596 cells (CCK), IC50 [2] [nM] | Inhibition of proliferation of PC9 cells (CCK), IC50 [2] [nM] | Inhibition of proliferation of SNU5 cells (CCK), IC50 [2] [nM] | EC50 [3] [nM] | IC50 [4] [nM] | Kd [5] [nM] | IC50 (nM) in MKN45 cell (cytotoxicity, ATP assay) [6] [nM] | Inhibition of proliferation of NCI-H1993 cells (CCK), IC50 [2] [nM] |
| --- | --- | --- | --- | --- | --- | --- | --- | --- | --- | --- | --- | --- |
| B1 | 0.55 | > 1000 | > 1000 | 0.15 | 13.7 | > 1000 | 0.1 | 0.39 | 1.5 | 8 |  |  |
| B2 |  |  |  |  |  |  |  | 0.2 |  |  |  |  |
| B3 |  | 6.9 | 6.5 | 0.17 | 104 | 5.6 | 0.24 |  |  |  | 0.51 | 2.8 |
| B4 |  |  |  |  |  |  |  |  |  |  | 0.59 |  |
| B5 | 0.52 |  |  |  |  |  |  | 0.13 | 1.42 | 4 |  |  |
